Reference: patent US20100303819A1

Tests used:
Assay in all cases: control-mAb-coated microbeads on monocyte-derived macrophages (which carry hDCL-1, MMR and DEC-205), confocal microscopy
[1] = biological target: DEC-205 (CD205) on human monocyte-derived macrophages (human) (UniProt O60449)
[2] = biological target: human DCL-1 (native, on human leukocytes) (human) (UniProt Q8IX05)
[3] = biological target: MMR/CD206 on human monocyte-derived macrophages (human) (UniProt P22897)
UniProt P22897, sequence (P22897 19-1456): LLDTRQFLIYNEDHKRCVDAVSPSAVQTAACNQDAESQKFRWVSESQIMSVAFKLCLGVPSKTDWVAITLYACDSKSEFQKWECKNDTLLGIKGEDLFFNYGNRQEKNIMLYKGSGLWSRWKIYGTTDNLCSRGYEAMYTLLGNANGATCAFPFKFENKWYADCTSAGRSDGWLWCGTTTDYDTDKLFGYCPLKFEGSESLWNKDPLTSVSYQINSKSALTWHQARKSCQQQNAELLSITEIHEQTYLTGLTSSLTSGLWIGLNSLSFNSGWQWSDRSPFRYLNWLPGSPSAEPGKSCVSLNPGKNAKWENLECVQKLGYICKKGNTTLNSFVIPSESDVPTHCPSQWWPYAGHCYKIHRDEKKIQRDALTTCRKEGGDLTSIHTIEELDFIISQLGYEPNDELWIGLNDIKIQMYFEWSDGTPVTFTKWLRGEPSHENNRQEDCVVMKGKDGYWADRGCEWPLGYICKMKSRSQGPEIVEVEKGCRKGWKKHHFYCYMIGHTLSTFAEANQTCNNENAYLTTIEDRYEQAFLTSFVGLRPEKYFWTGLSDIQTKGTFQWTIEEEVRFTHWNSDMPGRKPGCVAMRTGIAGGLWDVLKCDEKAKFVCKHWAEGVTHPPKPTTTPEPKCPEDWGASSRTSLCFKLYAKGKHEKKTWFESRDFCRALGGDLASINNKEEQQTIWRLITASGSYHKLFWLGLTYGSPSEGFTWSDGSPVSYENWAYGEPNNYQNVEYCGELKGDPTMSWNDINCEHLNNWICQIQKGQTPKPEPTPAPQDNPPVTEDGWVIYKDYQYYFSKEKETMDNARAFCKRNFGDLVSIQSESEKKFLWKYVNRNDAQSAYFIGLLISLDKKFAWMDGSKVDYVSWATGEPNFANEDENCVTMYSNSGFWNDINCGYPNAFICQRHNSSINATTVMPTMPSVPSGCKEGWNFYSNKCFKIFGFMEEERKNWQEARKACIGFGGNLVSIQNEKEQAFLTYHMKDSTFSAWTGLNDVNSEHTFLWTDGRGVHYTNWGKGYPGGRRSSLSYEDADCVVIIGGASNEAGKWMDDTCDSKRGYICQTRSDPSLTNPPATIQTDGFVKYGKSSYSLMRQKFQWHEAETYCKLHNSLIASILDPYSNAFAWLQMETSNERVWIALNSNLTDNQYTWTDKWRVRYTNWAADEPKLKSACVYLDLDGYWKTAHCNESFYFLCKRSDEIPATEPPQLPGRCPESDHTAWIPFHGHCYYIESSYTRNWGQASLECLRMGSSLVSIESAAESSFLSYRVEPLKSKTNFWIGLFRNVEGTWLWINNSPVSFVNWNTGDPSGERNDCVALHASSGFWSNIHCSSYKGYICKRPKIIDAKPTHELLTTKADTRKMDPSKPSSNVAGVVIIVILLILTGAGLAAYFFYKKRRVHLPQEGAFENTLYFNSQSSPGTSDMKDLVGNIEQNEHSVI

UniProt Q8IX05, sequence (Q8IX05 23-232 limits assumed): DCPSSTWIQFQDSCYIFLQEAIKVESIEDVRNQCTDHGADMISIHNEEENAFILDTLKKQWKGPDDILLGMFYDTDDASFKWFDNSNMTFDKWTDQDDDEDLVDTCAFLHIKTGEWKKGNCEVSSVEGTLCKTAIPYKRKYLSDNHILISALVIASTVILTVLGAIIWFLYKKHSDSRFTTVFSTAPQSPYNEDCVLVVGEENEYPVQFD
UniProt O60449, sequence (O60449 28-1722): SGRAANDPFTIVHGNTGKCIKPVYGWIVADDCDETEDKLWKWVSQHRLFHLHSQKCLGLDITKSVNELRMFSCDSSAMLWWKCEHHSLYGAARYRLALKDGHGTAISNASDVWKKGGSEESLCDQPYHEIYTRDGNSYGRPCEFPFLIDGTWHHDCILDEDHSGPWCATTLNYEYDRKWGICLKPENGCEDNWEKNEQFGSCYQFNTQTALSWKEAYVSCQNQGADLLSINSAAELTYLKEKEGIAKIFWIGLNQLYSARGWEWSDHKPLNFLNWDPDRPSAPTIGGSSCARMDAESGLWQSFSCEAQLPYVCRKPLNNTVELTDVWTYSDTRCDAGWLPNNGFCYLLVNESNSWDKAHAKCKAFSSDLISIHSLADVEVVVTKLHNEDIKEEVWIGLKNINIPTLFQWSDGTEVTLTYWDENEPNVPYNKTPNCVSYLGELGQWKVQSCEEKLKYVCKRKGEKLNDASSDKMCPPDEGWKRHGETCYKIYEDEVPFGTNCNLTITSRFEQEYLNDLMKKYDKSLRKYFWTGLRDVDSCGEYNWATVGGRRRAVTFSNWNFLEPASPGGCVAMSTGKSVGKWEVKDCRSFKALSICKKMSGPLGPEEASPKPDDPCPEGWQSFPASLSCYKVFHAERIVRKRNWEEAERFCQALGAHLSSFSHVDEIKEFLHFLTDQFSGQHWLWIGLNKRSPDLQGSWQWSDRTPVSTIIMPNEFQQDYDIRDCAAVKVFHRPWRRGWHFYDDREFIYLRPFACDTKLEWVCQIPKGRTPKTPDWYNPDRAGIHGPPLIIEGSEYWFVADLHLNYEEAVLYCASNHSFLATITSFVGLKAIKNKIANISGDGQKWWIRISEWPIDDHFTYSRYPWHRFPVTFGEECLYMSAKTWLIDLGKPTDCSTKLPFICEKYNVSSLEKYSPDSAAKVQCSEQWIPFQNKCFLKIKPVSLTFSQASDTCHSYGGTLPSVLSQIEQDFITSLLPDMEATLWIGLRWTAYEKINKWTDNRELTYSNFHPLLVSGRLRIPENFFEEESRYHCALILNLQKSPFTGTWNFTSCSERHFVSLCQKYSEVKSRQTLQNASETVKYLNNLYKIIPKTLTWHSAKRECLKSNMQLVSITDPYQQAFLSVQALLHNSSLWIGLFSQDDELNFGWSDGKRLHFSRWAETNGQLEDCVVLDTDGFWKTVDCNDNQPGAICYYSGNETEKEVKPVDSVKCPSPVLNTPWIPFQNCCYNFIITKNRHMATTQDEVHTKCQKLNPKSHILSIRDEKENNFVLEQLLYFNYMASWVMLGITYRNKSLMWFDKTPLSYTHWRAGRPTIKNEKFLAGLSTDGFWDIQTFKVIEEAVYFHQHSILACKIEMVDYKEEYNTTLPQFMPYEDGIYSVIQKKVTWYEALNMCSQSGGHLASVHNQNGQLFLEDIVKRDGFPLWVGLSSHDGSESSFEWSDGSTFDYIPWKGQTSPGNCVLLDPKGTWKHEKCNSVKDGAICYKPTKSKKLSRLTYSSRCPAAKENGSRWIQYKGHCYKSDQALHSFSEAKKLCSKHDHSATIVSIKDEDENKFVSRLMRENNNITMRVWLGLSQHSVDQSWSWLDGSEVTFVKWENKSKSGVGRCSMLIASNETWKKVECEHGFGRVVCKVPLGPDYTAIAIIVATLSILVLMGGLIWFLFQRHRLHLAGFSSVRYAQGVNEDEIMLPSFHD

- microbeads bound per cell [1]: 0.09 beads/cell
- microbeads bound per cell [2]: 0.09 beads/cell
- microbeads bound per cell [3]: 0.09 beads/cell
Substance: isotype control mAb 401.21 (antibody)
